Test results from US20120263745A1 (DUKE UNIVERSITY, published 2012).
Where no end group is shown, it is not given here.

T1: Recombinant Chlamydial Protease-like Activity Factor (CPAF), his-tagged, expressed in E. coli BL21 (DE3) from … (C. trachomatis, UniProt O84866 17-234; O84866 276-601)
T1 sequence 1: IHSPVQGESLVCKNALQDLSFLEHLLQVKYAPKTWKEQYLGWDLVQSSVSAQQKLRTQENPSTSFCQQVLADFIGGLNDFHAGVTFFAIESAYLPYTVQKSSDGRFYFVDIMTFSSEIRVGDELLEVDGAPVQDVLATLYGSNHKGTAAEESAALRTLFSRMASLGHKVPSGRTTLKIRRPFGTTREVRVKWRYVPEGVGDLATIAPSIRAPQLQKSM
T1 sequence 2: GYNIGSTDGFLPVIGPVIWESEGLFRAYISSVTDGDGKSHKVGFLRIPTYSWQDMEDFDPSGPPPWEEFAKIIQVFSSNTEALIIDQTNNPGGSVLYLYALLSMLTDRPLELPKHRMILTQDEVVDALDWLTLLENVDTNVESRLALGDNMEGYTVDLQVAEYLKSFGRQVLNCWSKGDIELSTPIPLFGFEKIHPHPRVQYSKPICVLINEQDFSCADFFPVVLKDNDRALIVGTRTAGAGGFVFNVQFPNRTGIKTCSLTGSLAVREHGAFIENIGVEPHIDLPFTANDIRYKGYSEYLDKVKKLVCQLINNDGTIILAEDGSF

T2: Abz-tagged model CPAF substrate Abz-V-R-L-R-S-S-V-P-G-V-NH2 (SEQ ID NO:9), derived from human vimentin
T2 chain: VRLRSSVPGV

T3: Peptide of SEQ ID NO:7 (CPAF inhibitory segment plus nine C-terminal arginines) (not fully specified)
T3 chain: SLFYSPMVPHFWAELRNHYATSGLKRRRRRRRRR

T4: Sequence-scrambled control peptide H-NFALSHFRLPLSTYKEMPYVSHWAGRRRRRRRRR-NH2 (SEQ ID NO:11)
T4 chain: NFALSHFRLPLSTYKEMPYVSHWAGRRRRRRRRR


What was measured:
[1] = target: T1, Recombinant Chlamydial Protease-like …; experiment: cell-based or functional assay
[2] = target: T2, Abz-tagged model CPAF substrate …
[3] = target: Endogenous Ct288 from EB lysates
[4] = target: Endogenous Ct694 from EB lysates
[5] = target: Endogenous Tarp from EB lysates
[6] = target: T3, Peptide of SEQ ID NO:7 (CPAF inhibitory …)
[7] = target: Recombinant CdsQ, type-III secretion (T3S) core component
[8] = target: Recombinant Ct584, T3S needle component
[9] = target: Recombinant Mcsc, T3S chaperone
[10] = target: T4, Sequence-scrambled control peptide …

Binder	IC50, inhibition of CPAF cleavage of the Abz-tagged model substrate SEQ ID NO:9 (HPLC-based assay, 62.5 nM CPAF, 0.5 mM substrate) [1]	KM of CPAF proteolysis of the model substrate (HPLC-based assay) [2]	kcat of CPAF proteolysis of the model substrate (HPLC-based assay) [2]	kcat/KM of CPAF proteolysis of the model substrate (HPLC-based assay) [2]	incubation of EB lysates with recombinant CPAF, immunoblot (FIG. 7) [3]	incubation of EB lysates with recombinant CPAF, immunoblot (FIG. 7) [4]	incubation of EB lysates with recombinant CPAF, immunoblot (FIG. 7) [5]	CPAF cleavage of GST-chlamydial substrates in vitro (SDS-PAGE, FIG. 8E) [6]	incubation with recombinant CPAF, immunoblot (FIG. 5B) [7]	incubation with recombinant CPAF, immunoblot (FIG. 5B) [8]	incubation with recombinant CPAF, immunoblot (FIG. 5B) [9]	CPAF cleavage of GST-chlamydial substrates in vitro (SDS-PAGE, FIG. 8E) [10]	IC50, inhibition of CPAF cleavage of the Abz/3-nitrotyrosine model substrate SEQ ID NO:10 (FRET-based assay, 62.5 nM CPAF) [1]	fold greater inhibition than SEQ ID NO:2 (HPLC-based assay) [1]	fold greater inhibition than lactacystin (HPLC-based assay) [1]
SLFYSPMVPHFWAELRNHYATSGLK (not fully specified (C-terminus)) [Peptide of SEQ ID NO:2 (CPAF inhibitory segment, SLFYSPMVPHFWAELRNHYATSGLK)]	1600 nM	–	–	–	–	–	–	–	–	–	–	–	–	–	–
Recombinant Chlamydial Protease-like Activity Factor (CPAF), his-tagged, expressed in E. coli BL21 (DE3) from pET30b-CPAF (protein) chain 1: IHSPVQGESLVCKNALQDLSFLEHLLQVKYAPKTWKEQYLGWDLVQSSVSAQQKLRTQENPSTSFCQQVLADFIGGLNDFHAGVTFFAIESAYLPYTVQKSSDGRFYFVDIMTFSSEIRVGDELLEVDGAPVQDVLATLYGSNHKGTAAEESAALRTLFSRMASLGHKVPSGRTTLKIRRPFGTTREVRVKWRYVPEGVGDLATIAPSIRAPQLQKSM chain 2: GYNIGSTDGFLPVIGPVIWESEGLFRAYISSVTDGDGKSHKVGFLRIPTYSWQDMEDFDPSGPPPWEEFAKIIQVFSSNTEALIIDQTNNPGGSVLYLYALLSMLTDRPLELPKHRMILTQDEVVDALDWLTLLENVDTNVESRLALGDNMEGYTVDLQVAEYLKSFGRQVLNCWSKGDIELSTPIPLFGFEKIHPHPRVQYSKPICVLINEQDFSCADFFPVVLKDNDRALIVGTRTAGAGGFVFNVQFPNRTGIKTCSLTGSLAVREHGAFIENIGVEPHIDLPFTANDIRYKGYSEYLDKVKKLVCQLINNDGTIILAEDGSF	–	KM=0.88 mM	kcat=13.2 5^-1	kcat/KM=1.5×10^4 M^-1s^-1	Ct694, TARP and Ct288 were cleaved	specifically degraded	specifically degraded	broadly inhibited degradation of CPAF substrates in vitro and in vivo	Recombinant CPAF does not cleave chlamydial proteins that are resistant to processing by cytosols form infected HeLa cells	Recombinant CPAF does not cleave chlamydial proteins that are resistant to processing by cytosols form infected HeLa cells	Recombinant CPAF does not cleave chlamydial proteins that are resistant to processing by cytosols form infected HeLa cells	but not a scrambled sequence of equal molecular weight (SEQ ID NO:11)	–	–	–
SLFYSPMVPHFWAELRNHYATSGLKRRRRRRRRR (not fully specified (C-terminus)) [Peptide of SEQ ID NO:7 (CPAF inhibitory segment plus nine C-terminal arginines)]	50 nM	–	–	–	–	–	–	–	–	–	–	–	30 nM	~30 fold	~200 fold
